Reference: article PMC8688357 (Frontiers in Microbiology, 2021)

Biological target: T1, recombinant biotin peptide-6 x His-tagged SARS-CoV-2 N protein (SARS-CoV-2 N-Bio-His6), biotinylated (SARS-CoV-2, UniProt P0DTC9 1-419)
T1 construct: also called recombinant SARS-CoV-2 N fusion protein
Assay: ELISA
Settings: both partners purified

B1: SARS-CoV-2 Spike CD-Fc (fusion protein containing the SARS-CoV-2 Spike C-terminal domain and the human IgG1 Fc domain) (Fc fusion)
chain: LCCMTSCCSCLKGCCSCGSCCKFDEDDSEPVLKGVKLHYT
notes: also called recombinant SARS-CoV-2 Spike CD fusion protein
binding result: binds
